Data from PMC9596381, “GPC3-Unc5 receptor complex structure and role in cell migration” (Cell, 2022).

What was measured:
[1] = target: T1, murine GPC3 ectodomain, residues 31-559 (mGPC3^ecto) (mouse, UniProt Q8CFZ4 31-559); test: SPR; Unc5A-D ectodomains immobilised; hGPC3^core or mGPC3^ecto injected in a 2-fold dilution series (top 4.5 uM) with Fc control protein, Nano^glue or Nano^break kept constant at 9 uM (with hGPC3^core) or 4.5 uM (with mGPC3^ecto); settings: both partners purified
T1 construct: mouse glypican-3 (GPC3), residues 31-559; source: HEK293 cells, purified

[2] = target: T2, human glypican-3 core domain, residues 32-483 (hGPC3^core) (human, UniProt P51654 32-483, N-linked glycans at N124 and N241); test: as above; settings: both partners purified
T2 construct: human glypican-3 (GPC3), core domain, residues 32-483; Only partly cleaved at the furin-like site (R355-R358); the two fragments stay covalently attached; The forward primer starts at Met1; source: HEK293T or GnTI-deficient HEK293S, transiently transfected, secreted, purified (HisTrap, SEC); not shown: His6, C-terminal, kept
T2 sequence (P51654 32-483): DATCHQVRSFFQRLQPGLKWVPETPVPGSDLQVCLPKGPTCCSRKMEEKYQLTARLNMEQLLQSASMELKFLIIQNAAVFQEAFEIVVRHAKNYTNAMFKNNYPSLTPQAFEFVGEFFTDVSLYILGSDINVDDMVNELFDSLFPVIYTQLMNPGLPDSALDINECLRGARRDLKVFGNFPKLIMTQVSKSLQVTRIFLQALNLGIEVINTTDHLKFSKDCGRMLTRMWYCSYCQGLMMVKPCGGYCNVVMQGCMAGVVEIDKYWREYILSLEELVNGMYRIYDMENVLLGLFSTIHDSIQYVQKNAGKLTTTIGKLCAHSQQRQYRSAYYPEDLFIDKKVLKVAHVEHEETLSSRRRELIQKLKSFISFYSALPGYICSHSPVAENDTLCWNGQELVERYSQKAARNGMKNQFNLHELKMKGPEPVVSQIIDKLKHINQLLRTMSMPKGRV

T1 sequence (Q8CFZ4 31-559): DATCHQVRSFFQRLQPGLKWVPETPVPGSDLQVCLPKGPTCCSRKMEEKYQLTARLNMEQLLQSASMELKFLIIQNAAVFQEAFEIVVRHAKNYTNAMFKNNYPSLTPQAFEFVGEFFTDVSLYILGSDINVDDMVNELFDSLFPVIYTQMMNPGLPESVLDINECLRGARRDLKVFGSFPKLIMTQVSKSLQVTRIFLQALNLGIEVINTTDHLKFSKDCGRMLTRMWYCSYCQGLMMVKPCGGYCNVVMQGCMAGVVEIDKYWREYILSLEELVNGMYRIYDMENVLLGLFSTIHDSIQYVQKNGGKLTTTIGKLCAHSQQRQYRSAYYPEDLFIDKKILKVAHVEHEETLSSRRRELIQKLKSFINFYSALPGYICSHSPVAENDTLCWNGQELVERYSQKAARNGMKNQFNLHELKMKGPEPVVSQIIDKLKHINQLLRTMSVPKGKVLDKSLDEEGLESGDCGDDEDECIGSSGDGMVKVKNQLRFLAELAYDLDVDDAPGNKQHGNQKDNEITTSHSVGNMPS

binding result [1]: binds
binding result [2]: binds
B1: mouse Unc5A ectodomain, residues 1-359 (mUnc5A^ecto) (domain or fragment)
chain: not shown
modifications: biotin on the Avi-tag
notes: signal peptide in the construct; mouse Unc5A, residues 1-359; source: HEK293 cells, purified; not shown: Avi-tag, C-terminal, kept
